The text below walks through data of patent US20110158985A1 (published 2011).

Assay [1] deals with T1, murine FcRn (mouse, UniProt P01887 21-119).
T1 construct: also called mouse FcRn; muFcRn
T1 sequence: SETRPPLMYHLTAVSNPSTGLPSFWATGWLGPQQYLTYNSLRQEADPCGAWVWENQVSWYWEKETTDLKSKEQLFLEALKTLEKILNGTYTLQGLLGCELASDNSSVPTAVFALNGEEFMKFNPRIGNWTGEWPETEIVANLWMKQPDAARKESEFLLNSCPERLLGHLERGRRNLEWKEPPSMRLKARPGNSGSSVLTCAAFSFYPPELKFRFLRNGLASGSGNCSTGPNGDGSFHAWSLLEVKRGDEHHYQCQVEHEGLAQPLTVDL
T1 sequence (b2m): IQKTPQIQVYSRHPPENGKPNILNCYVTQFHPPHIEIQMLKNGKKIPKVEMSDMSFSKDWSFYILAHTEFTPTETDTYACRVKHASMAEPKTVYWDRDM
As to the kind of experiment: SPR (BIAcore 3000), FcRn over immobilised IgG1, pH 6.0, Scatchard. In general terms: Surface plasmon resonance follows binding to a sensor surface in real time, without labels.
Description: (§1) IgG1 variants was monitored by surface plasmon resonance detection using a BIAcore 3000 instrument (Pharmacia Biosensor, Uppsala, Sweden). […] The protein concentrations ranged from 3-5 μg/ml in 10 mM sodium acetate, pH 5.0. The activation period was set for 7 minutes at a flow rate of 10 μl/min and the immobilization period was set to between 10 and 20 minutes at a flow rate of 10 μl/min. […] Human and murine FcRn were buffer exchanged against 50 mM PBS buffer pH 6.0 containing 0.05% Tween 20. Dilutions were made in the same buffer. All binding experiments were performed at 25° C. with concentrations ranging from 120 to 1 μg/ml at a flow rate of 5 to 10 μl/min; data were collected for 25 to 50 minutes and three 1-minute pulses of PBS buffer pH 7.2 were used to regenerate the surfaces. FcRn was also flowed over an uncoated cell and the sensorgrams from these blank runs subtracted from those obtained with IgG1-coupled chips. Runs were analyzed using the software BIAevaluation 3.1 (Pharmacia). Association constants (KAs) were determined from Scatchard analysis by measuring the concentration of free reactants and complex at equilibrium after correction for nonspecific binding.

For assay [2], the target named is T2, human FcRn (human).
T2 construct: also called recombinant human FcRn
T2 sequence (chain, as listed by the source limits assumed, chain 1 of 2): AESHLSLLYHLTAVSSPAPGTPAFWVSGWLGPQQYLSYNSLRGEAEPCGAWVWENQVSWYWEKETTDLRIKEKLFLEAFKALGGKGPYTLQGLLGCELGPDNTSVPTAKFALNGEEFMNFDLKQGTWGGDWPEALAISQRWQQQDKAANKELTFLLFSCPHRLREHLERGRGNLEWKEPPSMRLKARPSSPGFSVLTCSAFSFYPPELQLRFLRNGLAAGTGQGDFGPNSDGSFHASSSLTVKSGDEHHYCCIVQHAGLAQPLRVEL
T2 sequence (P61769 21-119 limits assumed, chain 2 of 2): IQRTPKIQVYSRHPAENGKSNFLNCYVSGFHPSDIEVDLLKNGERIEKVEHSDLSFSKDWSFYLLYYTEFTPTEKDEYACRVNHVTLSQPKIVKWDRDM
The description is as above.
Description: as §1

Assay [3] addresses T3, F protein of RSV (Long strain) (RSV (Long strain), UniProt P12568 26-574). Description: cell-based or functional assay.
Assay [4] addresses T4, recombinant C-terminally truncated RSV (A2 strain) F protein (RSV (A2 strain), UniProt P03420 26-524).
T4 construct: extracellular domain; also called truncated F protein; extracellular domain of the F protein from RSV A2
Description: SPR (BIAcore), IgG over immobilised F.

Assay [5] deals with T3, F protein of RSV (Long strain). As to the kind of experiment: cell-based or functional assay. The source holds these as a separate data set.
Assay [6] deals with Bac-F (respiratory syncytial virus). Description: SPR (BIAcore), mAb vs Bac-F (1:1).
Assay [7] deals with T3, F protein of RSV (Long strain). As to the kind of experiment: cell-based or functional assay. The source holds these as a separate data set.
For assay [8] the target is unchanged. As to the kind of experiment: cell-based or functional assay. The source holds these as a separate data set.
Assay [9] shares this target. Description: cell-based or functional assay. The source holds these as a separate data set.
For assay [10], the target named is T4, recombinant C-terminally truncated RSV …. Description: SPR (BIAcore 3000), F immobilised at low density, 1:1 Langmuir fit.
Target sequence in this assay (P03420 137-524): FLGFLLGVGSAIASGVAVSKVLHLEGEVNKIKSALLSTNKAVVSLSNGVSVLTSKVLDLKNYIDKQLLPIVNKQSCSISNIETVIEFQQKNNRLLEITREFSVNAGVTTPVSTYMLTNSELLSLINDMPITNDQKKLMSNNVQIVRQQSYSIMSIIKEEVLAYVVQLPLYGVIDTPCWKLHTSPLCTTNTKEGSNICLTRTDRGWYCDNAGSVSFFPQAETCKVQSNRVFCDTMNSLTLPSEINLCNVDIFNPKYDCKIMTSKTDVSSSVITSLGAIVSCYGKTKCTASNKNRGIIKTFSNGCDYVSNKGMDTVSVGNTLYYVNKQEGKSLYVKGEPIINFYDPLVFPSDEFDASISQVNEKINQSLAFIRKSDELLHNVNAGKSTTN
Description: Purified F protein was covalently coupled to an N-hydroxysuccinimide-N-ethyl-N′-[3-diethylaminopropyl]-carbodiimide (EDC/NHS) activated CM5 sensor chip at a low protein density according to the manufacturer's protocol; unreacted active ester groups were blocked with 1 M ethanolamine. For reference purposes, a blank surface, containing no antigen, was prepared under identical immobilization conditions.
For kinetic measurements, a serial 2-fold dilution series of each mAb from 100 nm-0.2 nm, made in instrument buffer (HBS/Tween-20, BIAcore, Inc.), was injected over the F-protein and reference cell surfaces, which are connected in series. In each analysis, following the dissociation phase, the remaining bound antibody was removed from the sensor chip by passing a brief pulse of 100 mM HCl over the surface. Once an entire data set was collected, the resulting binding curves were globally fitted to a 1:1 Langmuir binding model using BIAevaluation software (BIAcore, Inc., Piscataway, N.J.). This algorithm calculates both the association rate (kₒₙ) and the dissociation rate (koff), from which the apparent equilibrium binding constant, Kd, for each antibody was deduced as the ratio of the two rate constants, koff/kₒₙ.
Assay [11] has as its target T1, murine FcRn. As to the kind of experiment: SPR (BIAcore), FcRn over immobilised IgG1, pH 6.0.
Description: as §1
For assay [12], the target named is T2, human FcRn. Description: SPR (BIAcore), FcRn over immobilised IgG1, pH 6.0.
Description: as §1
The target in assay [13] is T5, Cynomolgus Monkey FcRn (Cynomolgus Monkey, UniProt Q8SPV9 24-290; Q8SPW0 21-119).
T5 construct: also called Cynomolgus FcRn
T5 sequence (Q8SPV9 24-290 limits assumed, chain 1 of 2): as the sequence (chain, as listed by the source limits assumed, chain 1 of 2) above, with N39D, E44Q, G99S, S189G, S190N, L217M counted along it
T5 sequence (Q8SPW0 21-119 limits assumed, chain 2 of 2): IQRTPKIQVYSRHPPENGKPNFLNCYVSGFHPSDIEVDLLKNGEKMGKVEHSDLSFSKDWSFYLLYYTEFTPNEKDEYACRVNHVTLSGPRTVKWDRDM
Description: SPR (BIAcore 3000), FcRn over immobilised IgG, pH 6.0, one-site fit.
Description: (§2) Human and Cynomolgus Monkey FcRn were buffer-exchanged against 50 mM Phosphate Buffered Saline (PBS) pH 6.0 or 7.4 containing 0.05% Tween 20. Dilutions were made in the same buffers. […] FcRn was also flowed over an uncoated cell and the sensorgrams from these blank runs subtracted from those obtained with IgG-coupled chips. Runs were analyzed using the software BIAevaluation 3.1 (Pharmacia). Dissociation constants (Kds) were determined by fitting the binding isotherms to a one-site binding model using GraphPad Prism (GraphPad Software, Inc., CA). Errors were estimated as the mean standard deviation for at least 2 independent determinations.

Assay [14] addresses T2, human FcRn. Described as above.
Description: as §2
Assay [15] has as its target T5, Cynomolgus Monkey FcRn. Description: SPR (BIAcore 3000), FcRn over immobilised IgG.
Description: as §2
The target of assay [16] is T2, human FcRn. As to the kind of experiment: SPR (BIAcore 3000), FcRn over immobilised IgG.
Description: as §2
The target of assay [17] is T1, murine FcRn. As to the kind of experiment: SPR (BIAcore), murine FcRn over immobilised IgG1, Scatchard.
Description: Runs were analyzed using the software BIAevaluation 3.1 (Pharmacia). Association constants (KAs) were determined from Scatchard analysis by measuring the concentration of free reactants and complex at equilibrium after correction for nonspecific binding. […] The concentration of free analyte (human or murine FcRn) is equal to the bulk analyte concentration since analyte is constantly replenished during sample injection. The concentration of free ligand on the surface of the sensor chip can be derived from the concentration of the complex and from the total binding capacity of the surface as KA=Req/C(Rₘₐₓ−Req) where C is the free analyte concentration, Req is the steady-state response, and Rₘₐₓ is the total surface binding capacity. Rearranging, the equation reads: Req/C=KA Rₘₐₓ−KA Req.
To estimate apparent KAs, concentrations of FcRn ranging from 120 to 1 μg/ml were used. In all cases, equilibrium (or near-equilibrium) binding levels were reached within 50 minutes. To estimate the increase in RU resulting from the non specific effect of protein on the bulk refractive index, binding of FcRn to an uncoated cell was measured and the sensorgrams from these blank runs subtracted from those obtained with IgG1-coupled chips. The plots were all linear, and apparent KAs were calculated from the relevant slopes. […]
Assay [18] has as its target T6, RSV F glycoprotein (NUF4) (respiratory syncytial virus).
T6 chain 1: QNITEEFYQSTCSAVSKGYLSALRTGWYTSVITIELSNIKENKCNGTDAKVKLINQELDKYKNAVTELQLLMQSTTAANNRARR
T6 chain 2: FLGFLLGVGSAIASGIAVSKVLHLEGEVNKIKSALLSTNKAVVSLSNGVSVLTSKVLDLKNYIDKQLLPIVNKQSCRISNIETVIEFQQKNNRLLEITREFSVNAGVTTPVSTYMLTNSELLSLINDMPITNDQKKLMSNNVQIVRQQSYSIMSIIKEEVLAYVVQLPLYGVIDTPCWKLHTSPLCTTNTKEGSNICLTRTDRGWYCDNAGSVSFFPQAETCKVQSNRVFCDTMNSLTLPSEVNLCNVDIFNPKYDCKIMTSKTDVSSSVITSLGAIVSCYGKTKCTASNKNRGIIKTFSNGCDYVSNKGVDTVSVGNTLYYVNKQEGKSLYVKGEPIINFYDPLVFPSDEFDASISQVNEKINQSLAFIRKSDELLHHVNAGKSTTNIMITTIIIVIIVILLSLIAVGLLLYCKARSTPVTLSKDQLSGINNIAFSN
Description: SPR (BIAcore), mAb vs NUF4 (2:1).

Assay [19] deals with T6, RSV F glycoprotein (NUF4). As to the kind of experiment: SPR (BIAcore), mAb vs NUF4 (1:1).
The target of assay [20] is T4, recombinant C-terminally truncated RSV …. As to the kind of experiment: SPR (BIAcore).
Target sequence in this assay (P03420 137-524): as the sequence (P03420 137-524) above

Values joined by “and” are separate entries in the source; they are usually repeats but may differ in a detail not shown here. Equal entries are not always repeated. Where two headings read alike, the source gives them in different places.

B1: palivizumab (IgG) (antibody)
heavy: not shown
light: DIQMTQSPSTLSASVGDRVTITCKCQLSVGYMHWYQQKPGKAPKLLIYDTSKLASGVPSRFSGSGSGTEFTLTISSLQPDDFATYYCFQGSGYPFTFGGGTKLEIKRTVAAPSVFIFPPSDEQLKSGTASVVCLLNNFYPREAKVQWKVDNALQSGNSQESVTEQDSKDSTYSLSSTLTLSKADYEKHKVYACEVTHQGLSSPVTKSFNRGEC
notes: also called SYNAGIS
Take B1: the Kd (usually the constant that tells how readily two partners part at equilibrium) in assay [1] came to 269 nM; in [2] it was 2530 nM; in [4] it was 3.39 nM; in assay [6] it was 3.9 nM; in assay [10], 3.46 nM. Further, in assay [3], half-maximal inhibition (IC50) was put at 3.57 nM. The “Mean IC50 (Control)” value in [5] was 0.535 µg/mL. Moreover, in assay [5], the “Mean IC50 (Curve)” value stood at 0.453 µg/mL. For the same molecule, the “Microneutralization IC50, IgG” value in assay [7] is 0.453 µg/ml and 3.02 nM; in assay [8], 0.453 µg/ml and 3.02 nM. Also, in assay [9], the “Microneutralization IC50” value was 3.6 nM. Besides, the “RSV microneutralization, average IC50” value in assay [9] stood at 0.315 µg/mL.

B2: human IgG1 MEDI-493 (palivizumab) I253A (antibody)
heavy: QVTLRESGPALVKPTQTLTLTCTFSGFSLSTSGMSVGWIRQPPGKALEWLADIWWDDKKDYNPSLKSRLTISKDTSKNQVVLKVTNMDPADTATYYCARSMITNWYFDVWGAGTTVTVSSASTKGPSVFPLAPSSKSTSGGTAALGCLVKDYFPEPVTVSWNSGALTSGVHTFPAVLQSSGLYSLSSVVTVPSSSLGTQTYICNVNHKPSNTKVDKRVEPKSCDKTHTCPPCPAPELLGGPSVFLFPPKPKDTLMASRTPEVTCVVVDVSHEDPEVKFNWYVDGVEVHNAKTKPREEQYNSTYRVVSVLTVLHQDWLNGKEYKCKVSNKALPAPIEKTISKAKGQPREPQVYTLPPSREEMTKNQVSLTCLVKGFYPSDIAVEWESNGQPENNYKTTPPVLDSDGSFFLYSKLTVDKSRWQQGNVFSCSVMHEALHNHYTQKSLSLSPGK
light: DIQMTQSPSTLSASVGDRVTITCKCQLSVGYMHWYQQKPGKAPKLLIYDTSKLASGVPSRFSGSGSGTEFTLTISSLQPDDFATYYCFQGSGYPFTFGGGTKLEIKRTVAAPSVFIFPPSDEQLKSGTASVVCLLNNFYPREAKVQWKVDNALQSGNSQESVTEQDSKDSTYSLSSTLTLSKADYEKHKVYACEVTHQGLSSPVTKSFNRGEC
notes: also called 1253A
For the molecule B2, the binding result in assay [11] and in assay [12] was “no binding” throughout.

B3: MEDI-524-YTE (antibody, human IgG1, kappa)
heavy: QVTLRESGPALVKPTQTLTLTCTFSGFSLSTAGMSVGWIRQPPGKALEWLADIWWDDKKHYNPSLKDRLTISKDTSKNQVVLKVTNMDPADTATYYCARDMIFNFYFDVWGQGTTVTVSSASTKGPSVFPLAPSSKSTSGGTAALGCLVKDYFPEPVTVSWNSGALTSGVHTFPAVLQSSGLYSLSSVVTVPSSSLGTQTYICNVNHKPSNTKVDKRVEPKSCDKTHTCPPCPAPELLGGPSVFLFPPKPKDTLYITREPEVTCVVVDVSHEDPEVKFNWYVDGVEVHNAKTKPREEQYNSTYRVVSVLTVLHQDWLNGKEYKCKVSNKALPAPIEKTISKAKGQPREPQVYTLPPSREEMTKNQVSLTCLVKGFYPSDIAVEWESNGQPENNYKTTPPVLDSDGSFFLYSKLTVDKSRWQQGNVFSCSVMHEALHNHYTQKSLSLSPGK
light: DIQMTQSPSTLSASVGDRVTITCSASSRVGYMHWYQQKPGKAPKLLIYDTSKLASGVPSRFSGSGSGTEFTLTISSLQPDDFATYYCFQGSGYPFTFGGGTKVEIKRTVAAPSVFIFPPSDEQLKSGTASVVCLLNNFYPREAKVQWKVDNALQSGNSQESVTEQDSKDSTYSLSSTLTLSKADYEKHKVYACEVTHQGLSSPVTKSFNRGEC
Consider B3, for which the Kd in assay [13] stood at 134 nM; in assay [14] it was 210 nM. Further, the “fold affinity increase over MEDI-524” value in assay [15] came out at 9 fold; in assay [16], 11 fold.

B4: human IgG1 MEDI-493 (palivizumab) M252Y/S254T/T256E (antibody)
heavy: QVTLRESGPALVKPTQTLTLTCTFSGFSLSTSGMSVGWIRQPPGKALEWLADIWWDDKKDYNPSLKSRLTISKDTSKNQVVLKVTNMDPADTATYYCARSMITNWYFDVWGAGTTVTVSSASTKGPSVFPLAPSSKSTSGGTAALGCLVKDYFPEPVTVSWNSGALTSGVHTFPAVLQSSGLYSLSSVVTVPSSSLGTQTYICNVNHKPSNTKVDKRVEPKSCDKTHTCPPCPAPELLGGPSVFLFPPKPKDTLYITREPEVTCVVVDVSHEDPEVKFNWYVDGVEVHNAKTKPREEQYNSTYRVVSVLTVLHQDWLNGKEYKCKVSNKALPAPIEKTISKAKGQPREPQVYTLPPSREEMTKNQVSLTCLVKGFYPSDIAVEWESNGQPENNYKTTPPVLDSDGSFFLYSKLTVDKSRWQQGNVFSCSVMHEALHNHYTQKSLSLSPGK
light: DIQMTQSPSTLSASVGDRVTITCKCQLSVGYMHWYQQKPGKAPKLLIYDTSKLASGVPSRFSGSGSGTEFTLTISSLQPDDFATYYCFQGSGYPFTFGGGTKLEIKRTVAAPSVFIFPPSDEQLKSGTASVVCLLNNFYPREAKVQWKVDNALQSGNSQESVTEQDSKDSTYSLSSTLTLSKADYEKHKVYACEVTHQGLSSPVTKSFNRGEC
notes: also called IgG1/M252Y/S254T/T256E
On to B4, for which, in assay [1], the Kd turned out to be 27 nM and the ΔΔG turned out to be 1.4 kcal/mol. In addition, in assay [17], the affinity, expressed as Kd, was 24 nM.

B5: A12a6 IgG (antibody, V domains shown)
VH: QVTLRESGPALVKPTQTLTLTCTFSGFSLSTAGMSVGWIRQPPGKALEWLADIWWDGKKDYNPSLKDRLTISKDTSKNQVVLKVTNMDPADTATYYCARDMIFNFYFDVWGQGTTVTVSS
VL: DIQMTQSPSTLSASVGDRVTITCSASSRVGYMHWYQQKPGKAPKLLIYDTFKLSSGVPSRFSGSGSGTEFTLTISSLQPDDFATYYCFQGSGYPFTFGGGTKVEIKR
With B5, in assay [18], the Kd is 1.87 nM; the “fold in parentheses (palivizumab = 1)” value was determined as 167 fold; the koff (commonly a measure of how fast the partners let go of each other) was found to be 0.000408 s⁻¹; the kon (in general, the second-order rate constant of association) came out at 218000 M⁻¹ s⁻¹. Further, in assay [4], the Kd was 0.036 nM, the koff amounted to 1.65e-05 s⁻¹ and the kon is 460000 M⁻¹ s⁻¹. Moreover, in assay [5], the “Mean IC50 (Control)” value is 0.0354 µg/mL and the “Mean IC50 (Curve)” value amounted to 0.0357 µg/mL. Besides, in assay [6], binding was characterised by a dissociation constant (Kd) of 0.04 nM and the “fold in parentheses (palivizumab = 1)” value was found to be 98 fold. In assay [19], the affinity, expressed as Kd, was 0.73 nM; the “fold in parentheses (palivizumab = 1)” value came out at 12 fold; the koff was found to be 0.000291 s⁻¹; the kon came to 400000 M⁻¹ s⁻¹. Besides, the “Microneutralization IC50, IgG” value in [8] is 0.0357 µg/ml and 0.24 nM. The “fold improvement in koff upon IgG conversion (against its Fab)” value in [20] was found to be 13 fold.
